Like-named read-outs stand apart in the source and are kept apart here.

Here are results for five molecules from PMC12661925 (Structure (London, England : 1993), 2025).

The target of data set [1] is T1, Cas1-2/3 integrase (StrepII-Cas1 + Cas2/3 fusion) (Pseudomonas aeruginosa PA14, UniProt Q02ML7;Q02ML8 1-324;1-1076).
T1 sequence 1: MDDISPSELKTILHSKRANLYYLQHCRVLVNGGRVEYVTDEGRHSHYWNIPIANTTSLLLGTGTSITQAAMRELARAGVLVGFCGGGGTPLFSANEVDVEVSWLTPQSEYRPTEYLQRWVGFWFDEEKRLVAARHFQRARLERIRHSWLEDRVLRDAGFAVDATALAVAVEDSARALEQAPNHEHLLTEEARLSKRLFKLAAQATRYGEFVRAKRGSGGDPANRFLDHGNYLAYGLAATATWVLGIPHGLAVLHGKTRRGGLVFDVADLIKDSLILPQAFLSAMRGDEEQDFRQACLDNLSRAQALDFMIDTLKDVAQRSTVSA
T1 sequence 2: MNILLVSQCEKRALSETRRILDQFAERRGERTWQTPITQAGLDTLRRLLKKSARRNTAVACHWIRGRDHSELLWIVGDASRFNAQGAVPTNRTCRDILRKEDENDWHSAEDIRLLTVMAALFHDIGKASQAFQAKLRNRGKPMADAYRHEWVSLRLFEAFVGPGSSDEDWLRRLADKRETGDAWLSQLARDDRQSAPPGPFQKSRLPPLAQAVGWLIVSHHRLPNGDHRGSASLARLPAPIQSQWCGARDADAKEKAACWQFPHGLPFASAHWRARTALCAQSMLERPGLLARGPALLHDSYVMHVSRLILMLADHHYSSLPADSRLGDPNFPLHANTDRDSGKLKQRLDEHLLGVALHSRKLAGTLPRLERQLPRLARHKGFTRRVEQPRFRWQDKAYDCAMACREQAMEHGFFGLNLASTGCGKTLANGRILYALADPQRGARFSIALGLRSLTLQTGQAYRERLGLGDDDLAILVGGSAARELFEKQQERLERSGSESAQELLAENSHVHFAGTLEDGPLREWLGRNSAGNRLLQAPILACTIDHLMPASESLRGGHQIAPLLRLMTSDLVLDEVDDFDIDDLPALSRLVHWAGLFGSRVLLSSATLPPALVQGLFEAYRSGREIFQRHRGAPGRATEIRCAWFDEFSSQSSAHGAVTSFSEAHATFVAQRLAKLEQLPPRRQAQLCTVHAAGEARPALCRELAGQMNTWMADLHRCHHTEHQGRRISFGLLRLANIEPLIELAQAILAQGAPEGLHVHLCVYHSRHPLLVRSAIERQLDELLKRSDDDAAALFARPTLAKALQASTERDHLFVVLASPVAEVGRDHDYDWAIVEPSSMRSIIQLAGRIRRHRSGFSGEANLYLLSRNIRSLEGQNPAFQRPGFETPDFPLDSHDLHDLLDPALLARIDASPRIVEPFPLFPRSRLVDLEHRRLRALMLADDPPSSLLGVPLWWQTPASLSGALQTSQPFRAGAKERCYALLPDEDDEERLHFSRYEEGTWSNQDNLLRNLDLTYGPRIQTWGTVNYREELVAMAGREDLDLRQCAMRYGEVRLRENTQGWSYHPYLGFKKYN
The data set is described as follows: cryo-EM.

The data set “cryo-EM structure” deals with the molecule itself. The data set is described as follows: cryo-EM structure.
For data set [2], the target named is T1, Cas1-2/3 integrase (StrepII-Cas1 + …). Description: cryo-EM. This is another data set of the same source.

B1: Figure 4 foreign DNA with PAM (34/34 nt) (dsDNA)
DNA 1: TACATGCTCTAGCAAAACGACTTGCACAACGAGG
DNA 2: CCATTAAGTGCAAGTCGTTTTGCTAGAGCTACAT
For B1, the binding result in data set [1] is “binds”.

B2: Cas1 from the PA14 strain of Pseudomonas aeruginosa (type I-F), StrepII-tagged (enzyme, Pseudomonas aeruginosa (strain PA14))
chain: MDDISPSELKTILHSKRANLYYLQHCRVLVNGGRVEYVTDEGRHSHYWNIPIANTTSLLLGTGTSITQAAMRELARAGVLVGFCGGGGTPLFSANEVDVEVSWLTPQSEYRPTEYLQRWVGFWFDEEKRLVAARHFQRARLERIRHSWLEDRVLRDAGFAVDATALAVAVEDSARALEQAPNHEHLLTEEARLSKRLFKLAAQATRYGEFVRAKRGSGGDPANRFLDHGNYLAYGLAATATWVLGIPHGLAVLHGKTRRGGLVFDVADLIKDSLILPQAFLSAMRGDEEQDFRQACLDNLSRAQALDFMIDTLKDVAQRSTVSA
For B2, the binding result in “cryo-EM structure” was “binds”.

B3: Cas2/3 fusion protein from the PA14 strain of Pseudomonas aeruginosa (type I-F), untagged (enzyme, Pseudomonas aeruginosa (strain PA14))
chain: MNILLVSQCEKRALSETRRILDQFAERRGERTWQTPITQAGLDTLRRLLKKSARRNTAVACHWIRGRDHSELLWIVGDASRFNAQGAVPTNRTCRDILRKEDENDWHSAEDIRLLTVMAALFHDIGKASQAFQAKLRNRGKPMADAYRHEWVSLRLFEAFVGPGSSDEDWLRRLADKRETGDAWLSQLARDDRQSAPPGPFQKSRLPPLAQAVGWLIVSHHRLPNGDHRGSASLARLPAPIQSQWCGARDADAKEKAACWQFPHGLPFASAHWRARTALCAQSMLERPGLLARGPALLHDSYVMHVSRLILMLADHHYSSLPADSRLGDPNFPLHANTDRDSGKLKQRLDEHLLGVALHSRKLAGTLPRLERQLPRLARHKGFTRRVEQPRFRWQDKAYDCAMACREQAMEHGFFGLNLASTGCGKTLANGRILYALADPQRGARFSIALGLRSLTLQTGQAYRERLGLGDDDLAILVGGSAARELFEKQQERLERSGSESAQELLAENSHVHFAGTLEDGPLREWLGRNSAGNRLLQAPILACTIDHLMPASESLRGGHQIAPLLRLMTSDLVLDEVDDFDIDDLPALSRLVHWAGLFGSRVLLSSATLPPALVQGLFEAYRSGREIFQRHRGAPGRATEIRCAWFDEFSSQSSAHGAVTSFSEAHATFVAQRLAKLEQLPPRRQAQLCTVHAAGEARPALCRELAGQMNTWMADLHRCHHTEHQGRRISFGLLRLANIEPLIELAQAILAQGAPEGLHVHLCVYHSRHPLLVRSAIERQLDELLKRSDDDAAALFARPTLAKALQASTERDHLFVVLASPVAEVGRDHDYDWAIVEPSSMRSIIQLAGRIRRHRSGFSGEANLYLLSRNIRSLEGQNPAFQRPGFETPDFPLDSHDLHDLLDPALLARIDASPRIVEPFPLFPRSRLVDLEHRRLRALMLADDPPSSLLGVPLWWQTPASLSGALQTSQPFRAGAKERCYALLPDEDDEERLHFSRYEEGTWSNQDNLLRNLDLTYGPRIQTWGTVNYREELVAMAGREDLDLRQCAMRYGEVRLRENTQGWSYHPYLGFKKYN
As to B3, in the data set “cryo-EM structure”, the binding result was “binds”.

B4: Figures 4 and 5 foreign DNA without PAM (32/32 nt) (dsDNA)
DNA 1: TACATGCTCTAGCAAAACGACTTGCACAACGA
DNA 2: ATTAAGTGCAAGTCGTTTTGCTAGAGCTACAT
Consider B4, for which the binding result in data set [1] is reported as “binds”.

B5: Figure 3 foreign DNA, PAM on one strand (34/32 nt) (dsDNA)
DNA 1: AAAAACCTGGACTACTACAACCTTCGCTTTTTGG
DNA 2: TTTTTGCGAAGGTTGTAGTAGTCCAGGAAAAA
Regarding B5, the binding result in data set [2] is “binds”.
